Source: paper PMC7570111, “Iron-Sulfur Cluster Complex Assembly in the Mitochondria of Arabidopsis thaliana” (Plants, 2020)

What was measured:
[1] = molecular target: AtNFS1-His6 (cysteine desulfurase AtNFS1 from Arabidopsis thaliana, mature form, His6-tagged) (Arabidopsis thaliana) (UniProt O49543)
[2] = molecular target: AtNFS1-His6 (cysteine desulfurase AtNFS1 from Arabidopsis thaliana, mature form, His6-tagged) (Arabidopsis thaliana) (UniProt O49543); remark: listed apart in the source
[3] = molecular target: T1, AtNFS1 alone (Arabidopsis thaliana, UniProt O49543); experiment: L-alanine production, ninhydrin colorimetric assay at […] nm; format: biochemical; conditions: no AtFH or AtISD11, 25 mM Tris-HCl pH 8, 100 mM NaCl, 10 uM PLP, 100 uM DTT, 37 °C, low activity
T1 construct: gene NIFS1; mature form, pET32a with His6 tag and TEV site, codon-optimised, E. coli expression; about 48 kDa with His6
T1 sequence (O49543 35-453): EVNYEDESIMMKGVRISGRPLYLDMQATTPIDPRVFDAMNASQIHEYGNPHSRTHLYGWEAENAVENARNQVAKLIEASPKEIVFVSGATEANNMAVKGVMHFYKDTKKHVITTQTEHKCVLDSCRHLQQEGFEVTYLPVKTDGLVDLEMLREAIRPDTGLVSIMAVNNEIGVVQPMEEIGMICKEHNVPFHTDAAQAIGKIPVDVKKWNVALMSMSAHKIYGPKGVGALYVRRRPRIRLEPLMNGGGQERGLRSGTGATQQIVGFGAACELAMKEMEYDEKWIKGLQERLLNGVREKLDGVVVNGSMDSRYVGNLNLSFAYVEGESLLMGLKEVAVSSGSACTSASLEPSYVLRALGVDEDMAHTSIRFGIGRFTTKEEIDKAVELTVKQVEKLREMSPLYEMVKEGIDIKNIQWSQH

AtFH (frataxin from Arabidopsis thaliana, mature form, without His6 tag) (natural protein)
attenuation of the Fenton reaction (decrease in malondialdehyde produced from dRibose, Fe(II) and H2O2) with AtFH, AtNFS1 and AtISD11 together (30 uM each); AtFH alone about 40% [1]: 80%
cysteine desulfurase activity of AtNFS1 in the presence of AtFH and AtISD11 (1:1:1 molar ratio), Vmax [2]: 47.8 U/mg

N[C@@H](CS)C(=O)O [L-cysteine]
L-alanine production, ninhydrin colorimetric assay at 565 nm [3]: in the presence of its substrates, AtNFS1 alone shows low cysteine desulfurase activity
